Patent US20030092095
Positions count from the first letter of the chain named. Names and notes keep the numbering of the source.

T1: GST-RIZ332 (GST fusion of human RIZ1 residues 1-332)
T1 chain: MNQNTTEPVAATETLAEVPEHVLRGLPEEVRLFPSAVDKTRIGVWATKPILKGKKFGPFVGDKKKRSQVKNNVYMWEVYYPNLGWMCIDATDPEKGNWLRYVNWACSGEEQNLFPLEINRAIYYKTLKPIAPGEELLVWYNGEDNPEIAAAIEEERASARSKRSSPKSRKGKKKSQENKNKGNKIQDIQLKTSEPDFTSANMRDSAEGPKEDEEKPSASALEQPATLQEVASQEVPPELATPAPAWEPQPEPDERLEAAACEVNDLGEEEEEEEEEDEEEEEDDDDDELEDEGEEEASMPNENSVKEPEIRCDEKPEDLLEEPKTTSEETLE

B1: GST-RIZ200 (GST fusion of human RIZ1 residues 1-200) (protein)
chain: MNQNTTEPVAATETLAEVPEHVLRGLPEEVRLFPSAVDKTRIGVWATKPILKGKKFGPFVGDKKKRSQVKNNVYMWEVYYPNLGWMCIDATDPEKGNWLRYVNWACSGEEQNLFPLEINRAIYYKTLKPIAPGEELLVWYNGEDNPEIAAAIEEERASARSKRSSPKSRKGKKKSQENKNKGNKIQDIQLKTSEPDFTSA
B2: GST-RIZ161 (GST fusion of human RIZ1 residues 1-161) (protein)
chain: MNQNTTEPVAATETLAEVPEHVLRGLPEEVRLFPSAVDKTRIGVWATKPILKGKKFGPFVGDKKKRSQVKNNVYMWEVYYPNLGWMCIDATDPEKGNWLRYVNWACSGEEQNLFPLEINRAIYYKTLKPIAPGEELLVWYNGEDNPEIAAAIEEERASARS
B3: GST-RIZ200 point mutant C106Y (protein)
chain: B1 chain with C106Y
B4: GST-RIZ200 point mutant I188V (protein)
chain: B1 chain with I188V
B5: GST-RIZ200 point mutant A159V (protein)
chain: B1 chain with A159V
B6: GST-RIZ332 (GST fusion of human RIZ1 residues 1-332) (protein)
chain: T1 chain
B7: GSTRIZPBD, GST-hRIZ1(1514-1680) (GST fusion of the PR-binding domain of human RIZ1) (protein)
chain: HRRRTADAEIKMQSMQTPLGKTRARSSGPTQVPLPSSSFRSKQNVKFAASVKSKKPSSSSLRNSSPIRMAKITHVEGKKPKAVAKNHSAQLSSKTSRSLHVRVQKSKAVLQSKSTLASKKRTDRFNIKSRERSGGPVTRSLQLAAAADLSENKREDGSAKQELKDFS
B8: full length RIZ1 protein expressed in mammalian cells from adenovirus AdRIZ1 (protein)
chain: MNQNTTEPVAATETLAEVPEHVLRGLPEEVRLFPSAVDKTRIGVWATKPILKGKKFGPFVGDKKKRSQVKNNVYMWEVYYPNLGWMCIDATDPEKGNWLRYVNWACSGEEQNLFPLEINRAIYYKTLKPIAPGEELLVWYNGEDNPEIAAAIEEERASARSKRSSPKSRKGKKKSQENKNKGNKIQDIQLKTSEPDFTSANMRDSAEGPKEDEEKPSASALEQPATLQEVASQEVPPELATPAPAWEPQPEPDERLEAAACEVNDLGEEEEEEEEEDEEEEEDDDDDELEDEGEEEASMPNENSVKEPEIRCDEKPEDLLEEPKTTSEETLEDCSEVTPAMQIPRTKEEANGDVFETFMFPCQHCERKFTTKQGLERHMHIHISTVNHAFKCKYCGKAFGTQINRRRHERRHEAGLKRKPSQTLQPSEDLADGKASGENVASKDDSSPPSLGPDCLIMNSEKASQDTINSSVVEENGEVKELHPCKYCKKVFGTHTNMRRHQRRVHERHLIPKGVRRKGGLEEPQPPAEQAQATQNVYVPSTEPEEEGEADDVYIMDISSNISENLNYYIDGKIQTNNNTSNCDVIEMESASADLYGINCLLTPVTVEITQNIKTTQVPVTEDLPKEPLGSTNSEAKKRRTASPPALPKIKAETDSDPMVPSCSLSLPLSISTTEAVSFHKEKSVYLSSKLKQLLQTQDKLTPAGISATEIAKLGPVCVSAPASMLPVTSSRFKRRTSSPPSSPQHSPALRDFGKPSDGKAAWTDAGLTSKKSKLESHSDSPAWSLSGRDERETVSPPCFDEYKMSKEWTASSAFSSVCNQQPLDLSSGVKQKAEGTGKTPVQWESVLDLSVHKKHCSDSEGKEFKESHSVQPTCSAVKKRKPTTCMLQKVLLNEYNGIDLPVENPADGTRSPSPCKSLEAQPDPDLGPGSGFPAPTVESTPDVCPSSPALQTPSLSSGQLPPLLIPTDPSSPPPCPPVLTVATPPPPLLPTVPLPAPSSSASPHPCPSPLSNATAQSPLPILSPTVSPSPSPIPPVEPLMSAASPGPPTLSSSSSSSSSSSSFSSSSSSSSPSPPPLSAISSVVSSGDNLEASLPMISFKQEELENEGLKPREEPQSAAEQDVVVQETFNKNFVCNVCESPFLSIKDLTKHLSIHAEEWPFKCEFCVQLFKDKTDLSEHRFLLHGVGNIFVCSVCKKEFAFLCNLQQHQRDLHPDKVCTHHEFESGTLRPQNFTDPSKAHVEHMQSLPEDPLETSKEEEELNDSSEELYTTIKIMASGIKTKDPDVRLGLNQHYPSFKPPPFQYHHRNPMGIGVTATNFTTHNIPQTFTTAIRCTKCGKGVDNMPELHKHILACASASDKKRYTPKKNPVPLKQTVQPKNGVVVLDNSGKNAFRRMGQPKRLNFSVELSKMSSNKLKLNALKKKNQLVQKAILQKNKSAKQKADLKNACESSSHICPYCNREFTYIGSLNKHAAFSCPKKPLSPPKKKVSHSSKKGGHSSPASSDKNSNSNHRRRTADAEIKMQSMQTPLGKTRARSSGPTQVPLPSSSFRSKQNVKFAASVKSKKPSSSSLRNSSPIRMAKITHVEGKKPKAVAKNHSAQLSSKTSRSLHVRVQKSKAVLQSKSTLASKKRTDRFNIKSRERSGGPVTRSLQLAAAADLSENKREDGSAKQELKDFSYSLRLASRCSPPAAPYITRQYRKVKAPAAAQFQGPFFKE

Columns and labels:
[1] = target: histone H4 (free histones acid-extracted from human cancer cells A549 or U2OS), P62805
[2] = target: T1, GST-RIZ332 (GST fusion of human RIZ1 …)
[3] = target: H1 peptide (aa 15-37)
[4] = target: H3 N terminus 1-20 residue peptide (non-acetylated), P68431
[5] = target: H3 N terminus 1-20 residue peptide acetylated on K9 and K14, P68431
[6] = target: histone H1 (free histones acid-extracted from human cancer cells A549 or U2OS), P07305
[7] = target: histone H3 (free histones acid-extracted from human cancer cells A549 or U2OS), P68431

histone H1 (free histones acid-extracted from human cancer cells A549 or U2OS), P07305, sequence (P07305 whole entry, looked up): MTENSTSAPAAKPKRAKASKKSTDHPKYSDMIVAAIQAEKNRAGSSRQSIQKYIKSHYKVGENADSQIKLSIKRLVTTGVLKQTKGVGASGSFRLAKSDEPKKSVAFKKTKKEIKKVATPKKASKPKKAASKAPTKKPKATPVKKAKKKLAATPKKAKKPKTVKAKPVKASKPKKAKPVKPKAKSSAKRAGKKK

| Protein | histone methyltransferase activity in vitro (3H-SAM, SDS-PAGE, fluorography) [1] | other results |
| --- | --- | --- |
| B1 | Specific labeling of histone H4 was observed in the presence of purified GST product consisting of residues 1-200 of RIZ1 | – |
| B2 | GST alone or a protein consisting of residues 1-161 lacked HMT activity | – |
| B3 | missense mutations found in tumors, C106Y, I188V, and A159V, abolished HMT activity | – |
| B4 | missense mutations found in tumors, C106Y, I188V, and A159V, abolished HMT activity | – |
| B5 | missense mutations found in tumors, C106Y, I188V, and A159V, abolished HMT activity | – |
| B6 | A GST fusion protein expressing the N-terminal 332-residue peptide showed similar activities to the N-terminal 200-residue peptide in methylating H4 | – |
| B7 | GSTRIZPBD protein alone showed HMT activity, specifically on H4 | histone methyltransferase activity in vitro with both proteins present [2]: A synergistic enhancement (more than additive effects) of HMT activity was observed when GSTRIZ322 and GSTRIZPBD were both present in HMT reactions |
| B8 | – | in vitro peptide methylation by RIZ1, then HPLC purification and sequencing [3]: A H1 peptide (aa 15-37) was methylated by RIZ1 in vitro ... lysine 25 was methylated by RIZ1; in vitro peptide methylation by immunoprecipitated RIZ1, then peptide sequencing [4]: A peptide consisting the N-terminal 1-20 residues of H3 was indeed methylated in vitro by immunoprecipitated RIZ1 protein ... A single radioactive peak at lysine 9 was observed; in vitro peptide methylation by immunoprecipitated RIZ1 [5]: a peptide containing acetylated K9 and K14 was not methylated; histone methyltransferase activity of RIZ1 immunoprecipitates on free histones [6]: Immunoprecipitated products by RIZ1 serum from RIZ1-expressing extracts caused methylation of H1, H3, and H4; histone methyltransferase activity of RIZ1 immunoprecipitates on free histones [7]: Immunoprecipitated products by RIZ1 serum from RIZ1-expressing extracts caused methylation of H1, H3, and H4; histone methyltransferase activity of RIZ1 immunoprecipitates on free histones [1]: Immunoprecipitated products by RIZ1 serum from RIZ1-expressing extracts caused methylation of H1, H3, and H4 |
